From PMC3208551

What was measured:
[1] = biological target: ActRII-ECD (mouse); test: SPR; Biacore 2000; receptor ECDs immobilised on a CM5 chip by primary amine coupling, ligands flowed over; at least five concentrations plus zero; global 1:1 Langmuir binding with mass transfer, KD calculated as koff/kon
[2] = biological target: AB212 (BBBBBA) (human)

Chain of ActRII-ECD (mouse) (P27038 whole entry, the tested form may be a part): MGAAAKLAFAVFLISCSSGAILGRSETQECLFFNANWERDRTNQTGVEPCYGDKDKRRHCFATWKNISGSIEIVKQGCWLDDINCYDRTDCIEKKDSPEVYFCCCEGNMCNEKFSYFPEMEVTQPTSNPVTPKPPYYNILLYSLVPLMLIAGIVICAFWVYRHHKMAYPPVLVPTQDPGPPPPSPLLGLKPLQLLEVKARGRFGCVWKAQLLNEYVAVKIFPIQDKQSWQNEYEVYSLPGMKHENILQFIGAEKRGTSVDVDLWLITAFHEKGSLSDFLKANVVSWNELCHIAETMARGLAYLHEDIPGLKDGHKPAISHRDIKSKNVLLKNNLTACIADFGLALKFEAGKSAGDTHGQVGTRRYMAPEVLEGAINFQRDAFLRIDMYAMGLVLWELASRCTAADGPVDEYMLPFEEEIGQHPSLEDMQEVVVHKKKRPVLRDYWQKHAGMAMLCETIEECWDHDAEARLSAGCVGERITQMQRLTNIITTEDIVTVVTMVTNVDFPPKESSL

Kd [1] [nM] | koff [1] [s⁻¹] | kon [1] [M⁻¹ s⁻¹] | Smad1 luciferase reporter in C2C12 cells, 30 ng/ml ligand with 30, 100 and 300 ng/ml Noggin (% of signaling levels) [2] | Molecule
36.8 | 0.0405 | 1.1e+06 |  | BMP-2 (BBBBBB) (from UniProt P12643 283-396) (ligand)
 |  |  | 75 | Noggin (natural protein) QHYLHIRPAPSDNLPLVDLIEHPDPIFDPKEKDLNETLLRSLLGGHYDPGFMATSPPEDRPGGGGGAAGGAEDLAELDQLLRQRPSGAMPSEIKGLEFSEGLAQGKKQRLSKKLRRKLQMWLWSQTFCPVLYAWNDLGSRFWPRYVKVGSCFSKRSCSVPEGMVCKPSKSVHLTVLRWRCQRRGGQRCGWIPIQYPIISECKCSC
0.203 | 0.000716 | 3.52e+06 |  | Activin-βA (AAAAAA) (ligand) GLECDGKVNICCKKQFFVSFKDIGWNDWIIAPSGYHANYCEGECPSHIAGTSGSSLSFHSTVINHYRMRGHSPFANLKSCCVPTKLRPMSMLYYDDGQNIIKKDIQNMIVEECGCS
